{"source": "patent US20100215575A1", "about": "“Systemic Administration of Chlorotoxin Agents for the Diagnosis and Treatment of Tumors” (TRANSMOLECULAR, INC., priority 2007, published 2010)", "test_system": "D54-MG xenografted human glioma tumors", "assay": "Brain tumor targeting after intravenous injection (D54-MG/SCID mouse model)", "format": "in vivo", "conditions": "tail vein injection, measured after 24 hours", "excerpt": "These experiments consisted of five research studies utilizing the […] mouse model."}
{"substance": "125I-EGF: 125I-labeled EGF used as a control; EGF receptor is up-regulated in these tumors", "values": [{"measurement": "Targeting of brain tumor", "result": "did not localize to the brain tumors to any appreciable extent"}]}
